Reference: patent JP2014141434A (dated 2014)
Substitutions are numbered along the chain they refer to.

T1: rROBO4−ECD (ヒトROBO4細胞外領域ポリペプチド) (human, UniProt Q8WZ75 28-461)
T1 construct: It was cloned in pEF6/V5-His-TOPO; also called ヒトROBO4−ECD; rROBO4-ECD
T1 sequence: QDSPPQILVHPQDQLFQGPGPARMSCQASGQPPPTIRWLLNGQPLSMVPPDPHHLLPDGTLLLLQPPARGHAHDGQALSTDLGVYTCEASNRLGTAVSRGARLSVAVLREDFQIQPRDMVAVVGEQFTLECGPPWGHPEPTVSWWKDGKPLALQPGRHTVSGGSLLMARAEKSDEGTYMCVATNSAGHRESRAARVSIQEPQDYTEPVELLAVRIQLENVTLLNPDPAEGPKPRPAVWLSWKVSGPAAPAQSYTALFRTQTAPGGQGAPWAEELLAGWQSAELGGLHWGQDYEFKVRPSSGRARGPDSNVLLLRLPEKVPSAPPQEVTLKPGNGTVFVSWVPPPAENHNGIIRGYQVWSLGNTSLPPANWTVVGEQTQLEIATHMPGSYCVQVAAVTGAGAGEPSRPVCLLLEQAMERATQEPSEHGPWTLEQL

B1: ヒト化MAb1抗体 H−1140 (antibody, human IgG2, kappa, V domains shown)
VH: EVQLVESGGGLVQPGGSLRLSCAASGFTFSTYAMSWVRQAPGKGLEWVATISQGGTYTYYPDSVKGRFTISRDNAKNTLYLQMNSLRAEDTAVYYCARLIYYDYLDYWGQGTLVTVSS
VL: DIVMTQSPLSLPVTLGEPASISCRSSQSLENSNGNTYLNWYLQKPGQSPQLLIYRVSNRFSGVPDRFSGSGSGTDFTLKISRVEAEDVGVYYCLQVTHVPWTFGPGTKVDIKR
notes: Humanised IgG2 / kappa; also called H-1140; hMAb1-H2 / hMAb1-L1
B2: ヒト化MAb1抗体 H−1040 (antibody, human IgG2, kappa, V domains shown)
VH: B1 VH with Q53N
VL: B1 VL
notes: Humanised IgG2 / kappa; also called H-1040; hMAb1-H1 / hMAb1-L1
B3: ヒト化MAb1抗体 H−2040 (antibody, human IgG2, kappa, V domains shown)
VH: B1 VH with G44R, Q53N
VL: B1 VL
notes: Humanised IgG2 / kappa; also called H-2040; hMAb1-H3 / hMAb1-L1

The binders below were run against T1, rROBO4−ECD (ヒトROBO4細胞外領域ポリペプチド) (assay: SPR, Biacore 3000; antibody captured by anti-human IgG on CM5 chip, rROBO4-ECD (0.1-200 nM) as analyte, 1:1 model).
With B1 the Kd was 3.9 nM. With B2 the Kd was 0.41 nM. For B3, the Kd was 0.4 nM.
